Experimental data from patent US20190375821A1.

Target: VEGF165 (UniProt P15692)
Test: ELISA, plate coated with VEGF, anti-human Fc-HRP detection

Sequence of VEGF165 (P15692 other isoform, or with tags, fused parts or gaps limits assumed): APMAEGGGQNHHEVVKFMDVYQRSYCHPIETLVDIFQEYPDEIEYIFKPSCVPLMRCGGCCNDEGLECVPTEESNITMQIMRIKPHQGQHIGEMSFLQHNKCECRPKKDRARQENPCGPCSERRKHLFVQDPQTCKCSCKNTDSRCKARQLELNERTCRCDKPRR

VEGF-trap (aflibercept) (Fc fusion) showed a Kd of 0.5 pM.
